# Test results taken from publication PMC5909435.
# T1: TFAM K4Q4 (acetyl-lysine mimic) (Homo sapiens, UniProt Q00059 43-246, K62Q;K76Q;K111Q;K118Q)
# T1 sequence: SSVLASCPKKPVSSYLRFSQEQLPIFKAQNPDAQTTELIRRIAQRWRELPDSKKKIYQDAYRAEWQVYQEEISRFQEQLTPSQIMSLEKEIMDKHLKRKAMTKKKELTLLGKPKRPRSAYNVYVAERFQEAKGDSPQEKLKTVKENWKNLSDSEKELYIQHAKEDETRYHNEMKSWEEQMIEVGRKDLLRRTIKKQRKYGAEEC
# B1: non-specific 18 bp duplex with 13 nt overhang (mixed)
# DNA 1: GTCACTGTTCGAGCACCA
# DNA 2: CCATAGATAGCATTGGTGCTCGAACAGTGAC
# Biological target: T1, TFAM K4Q4 (acetyl-lysine mimic)
# Assay: MST
binder,measurement,value
B1,Kd,131 ± 17 nM
